For experiment [1], the target named is T1, wild-type human alpha-synuclein (human, UniProt P37840 1-140). Briefly: ELISA on alpha-synuclein, OD against ng/mL of antibody.
Experiment [2] concerns the target T1, wild-type human alpha-synuclein. Put plainly: SPR (Biacore), antibody captured on anti-human IgG chip, alpha-synuclein flowed over, 1:1 model global fit.
Protocol: An anti-human IgG CMS Biacore chip was prepared following the protocol supplied by GE Healthcare.
Data were collected and double reference subtracted to account for drift and a small amount of nonspecific binding. The data were analyzed using Biacore evaluation software using a 1:1 model and a global fit.

Where a chain is given by its changes, count along the chain named.

B1: humanized 5C1 antibody version H1L1 (antibody, V domains shown)
VH: QVQLVQSGAELKKPGSSVKVSCKASGYTFTNYWMNWVRQAPGQGLEWIGATNPNNGYTDYNQRFKDRATLTADKSTNTAYMELSSLRSEDTAVYYCARGGHLAYWGQGTLVTVSS
VL: DVVMTQSPLSLSVSPGEPASISCRSSQSLFHSKGNTYLHWYLQKPGQSPKLLINRVSNRFSGVPDRFSGSGSGTDFTLKISRVEAEDVGVYFCSQSAHVPWTFGGGTKVEIK
notes: Only variable regions are tied to this version
As to B1, in experiment [1], the binding result is listed as “no binding (tested: 1000 ng/mL)”.

B2: humanized 5C1 antibody version H4L4 (antibody, V domains shown)
VH: B1 VH with R98S
VL: B1 VL with V2I, K50Q, N54Y, F92Y
notes: Only variable regions are tied to this version; also called h5C1_H4L4
For the molecule B2, the Kd in experiment [2] was 601 nM.

B3: humanized 5C1 antibody version H5L4 (antibody, V domains shown)
VH: B1 VH with A68V, L70I, R98S
VL: B1 VL with V2I, K50Q, N54Y, F92Y
notes: Only variable regions are tied to this version; also called h5C1_H5L4
The molecule B3 came in with a Kd in experiment [2] of 1060 nM.

B4: humanized 5C1 antibody version H3L4 (antibody, V domains shown)
VH: B1 VH with Y95F, R98S
VL: B1 VL with V2I, K50Q, N54Y, F92Y
notes: Only variable regions are tied to this version; also called h5C1_H3L4
The molecule B4 yielded a Kd in experiment [2] of 1240 nM.

(Values after patent US20170174777A1 (PROTHENA BIOSCIENCE, published 2017).)
